Experimental data taken from US20250027945A1 (University of California, published 2025).

Tests used:
[1] = biological target: T1, human RYK on the surface of human tumor cell lines (human, UniProt P34925 46-607); test: flow cytometry, OVCAR4 cells (ovarian), 5 ug/ml 2-D11-Alexa647
T1 construct: whole, on cells; Endogenous expression
Procedure: (§1) Table 1 provides the flow cytometry data on various cancer cell lines stained with fluorochrome-conjugated 2-D11, as depicted in FIG. 8. The name of each cell line is listed in the first column and the tissue of origin is listed in the second column. Binding of the 2-D11 mAb to human RYK was assessed by flow cytometric staining and analysis by staining on ice for 20 minutes with 5 μg/ml of 2-D11 anti-human RYK-Alexa647 conjugated mAb or equal amounts of isotype matched control mAb, washed, and analyzed. The median fluorescence intensity (MFI) of 2-D11 stained cells is listed in the middle column and the MFI of isotype control stained cells are listed in the in the adjacent column. Cell lines were scored as “++”, “+”, or neg (unmarked with “+”) lines based on the ratio of median fluorescence intensity (MFI) of stained cells relative to the MFI of isotype control stained cells (MFIR).
(§2) The name of each cell line is listed in the first column and the tissue of origin is listed in the second column. Binding of the 2-D11 mAb to human RYK was assessed by flow cytometric staining and analysis by staining on ice for 20 minutes with 5 μg/ml of 2-D11 anti-human RYK-Alexa647 conjugated mAb or equal amounts of isotype matched control mAb, washed and analyzed. […]

[2] = biological target: T1, human RYK on the surface of human tumor …; test: flow cytometry, NCI H1155 cells (lung), 5 ug/ml 2-D11-Alexa647; line unmarked (no staining)
Procedure: as §1, §2

[3] = biological target: T1, human RYK on the surface of human tumor …; test: flow cytometry, K562 cells (CML), 5 ug/ml 2-D11-Alexa647
Procedure: as §1, §2

[4] = biological target: T1, human RYK on the surface of human tumor …; test: flow cytometry, COLO 829 cells (melanoma), 5 ug/ml 2-D11-Alexa647
Procedure: as §1, §2

[5] = biological target: T1, human RYK on the surface of human tumor …; test: flow cytometry, SK-MES-1 cells (lung), 5 ug/ml 2-D11-Alexa647; line unmarked (no staining)
Procedure: as §1, §2

[6] = biological target: T1, human RYK on the surface of human tumor …; test: flow cytometry, CAPAN-1 cells (pancreas), 5 ug/ml 2-D11-Alexa647
Procedure: as §1, §2

[7] = biological target: T1, human RYK on the surface of human tumor …; test: flow cytometry, H446 cells (lung), 5 ug/ml 2-D11-Alexa647
Procedure: as §1, §2

[8] = biological target: T1, human RYK on the surface of human tumor …; test: flow cytometry, PC3 cells (prostate), 5 ug/ml 2-D11-Alexa647; line unmarked (no staining)
Procedure: as §1, §2

[9] = biological target: T1, human RYK on the surface of human tumor …; test: flow cytometry, NALM6 cells (ALL), 5 ug/ml 2-D11-Alexa647; line unmarked (no staining)
Procedure: as §1, §2

[10] = biological target: T1, human RYK on the surface of human tumor …; test: flow cytometry, JEKO cells (mantle), 5 ug/ml 2-D11-Alexa647; line unmarked (no staining)
Procedure: as §1, §2

[11] = biological target: T1, human RYK on the surface of human tumor …; test: flow cytometry, NCI H929 cells (melanoma as printed), 5 ug/ml 2-D11-Alexa647; line unmarked (no staining)
Procedure: as §1, §2

[12] = biological target: T1, human RYK on the surface of human tumor …; test: flow cytometry, MOLT4 cells (T-cell ALL), 5 ug/ml 2-D11-Alexa647; line unmarked (no staining)
Procedure: as §1, §2

[13] = biological target: T1, human RYK on the surface of human tumor …; test: flow cytometry, HT144 cells (skin), 5 ug/ml 2-D11-Alexa647
Procedure: as §1, §2

[14] = biological target: T1, human RYK on the surface of human tumor …; test: flow cytometry, SW620 cells (colon), 5 ug/ml 2-D11-Alexa647; line unmarked (no staining)
Procedure: as §1, §2

[15] = biological target: T1, human RYK on the surface of human tumor …; test: flow cytometry, HS683 cells (brain), 5 ug/ml 2-D11-Alexa647
Procedure: as §1, §2

[16] = biological target: T1, human RYK on the surface of human tumor …; test: flow cytometry, RAJI cells (Burkitt NHL), 5 ug/ml 2-D11-Alexa647; line unmarked (no staining)
Procedure: as §1, §2

[17] = biological target: T1, human RYK on the surface of human tumor …; test: flow cytometry, REH cells (ALL), 5 ug/ml 2-D11-Alexa647; line unmarked (no staining)
Procedure: as §1, §2

T1 sequence (P34925 46-607 limits assumed, form in doubt): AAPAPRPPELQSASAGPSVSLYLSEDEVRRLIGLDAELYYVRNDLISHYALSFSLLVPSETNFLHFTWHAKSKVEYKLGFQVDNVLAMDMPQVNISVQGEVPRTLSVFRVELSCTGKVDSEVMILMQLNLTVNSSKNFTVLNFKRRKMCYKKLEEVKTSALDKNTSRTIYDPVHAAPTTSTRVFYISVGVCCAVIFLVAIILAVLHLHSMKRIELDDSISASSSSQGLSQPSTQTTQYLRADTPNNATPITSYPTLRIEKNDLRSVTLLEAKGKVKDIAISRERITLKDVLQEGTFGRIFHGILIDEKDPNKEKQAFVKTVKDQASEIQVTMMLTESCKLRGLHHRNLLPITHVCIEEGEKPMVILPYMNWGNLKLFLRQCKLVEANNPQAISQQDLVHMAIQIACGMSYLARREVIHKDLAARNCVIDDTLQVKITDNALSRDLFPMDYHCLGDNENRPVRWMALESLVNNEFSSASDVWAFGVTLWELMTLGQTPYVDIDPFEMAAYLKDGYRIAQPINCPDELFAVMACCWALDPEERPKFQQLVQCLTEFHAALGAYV

- MFIR (MFI ratio to isotype control) [1]: 2.1
- MFIR (MFI ratio to isotype control) [2]: 1.3
- MFIR (MFI ratio to isotype control) [3]: 1.5
- MFIR (MFI ratio to isotype control) [4]: 2.3
- MFIR (MFI ratio to isotype control) [5]: 1.1
- MFIR (MFI ratio to isotype control) [6]: 1.5
- MFIR (MFI ratio to isotype control) [7]: 2.6
- MFIR (MFI ratio to isotype control) [8]: 1.2
- MFIR (MFI ratio to isotype control) [9]: 1.3
- MFIR (MFI ratio to isotype control) [10]: 1.3
- MFIR (MFI ratio to isotype control) [11]: 1.2
- MFIR (MFI ratio to isotype control) [12]: 0.9
- MFIR (MFI ratio to isotype control) [13]: 1.6
- MFIR (MFI ratio to isotype control) [14]: 1.2
- MFIR (MFI ratio to isotype control) [15]: 2.5
- MFIR (MFI ratio to isotype control) [16]: 1
- MFIR (MFI ratio to isotype control) [17]: 1
B1: 2-D11 anti-human RYK mAb (antibody, V domains shown)
VH: QVQLKESGPGLVAPSQSLSITCSVSGFSLNDYGVNWVRQPPGKDLEWLGMIWGDGVTEYNSTLKSRLSISKDNSKSQVFLKMNNLQTEDTARYYCVRQGSGVWFAHWGQGTLVSVSS
VL: DVLVTQTPLSLPVSLGDQASISCRSSQTIVHSNGNTYLEWYLQKPGQSPKLLIYKVSNRFSGVPDRFSGSGSGTDFTLKISRVEAEDLGIYYCFQGSHVPYTFGGGTKLEIK
notes: Mouse hybridoma mAb, kappa light chain, detected with anti-mouse IgG; also called mAb 2-D11; 2-D11 anti-human RYK-Alexa647 conjugated mAb
